In article PMC7329908:

Experiments:
[1] = target: C. elegans Hsp90 (HSP-90) (C. elegans) (UniProt Q18688); assay: AUC; sedimentation velocity with fluorescence detection; 600 nM ATTO 488-labelled GRLBDm, 3 μM unlabelled chaperones and cofactors, 2 mM ATPγS; 20 mM HEPES, 20 mM KCl, 5 mM MgCl2, 50 μM dexamethasone, pH 7.5; 42,000 rpm, 20 °C
[2] = target: C. elegans Hsp90 (HSP-90) (C. elegans) (UniProt Q18688); assay: AUC; sedimentation velocity with fluorescence detection; 600 nM ATTO 488-labelled GRLBDm, 3 μM unlabelled chaperones and cofactors, no nucleotide; 20 mM HEPES, 20 mM KCl, 5 mM MgCl2, 50 μM dexamethasone, pH 7.5; 42,000 rpm, 20 °C

ATTO 488-labelled GRLBDm, the ligand-binding domain of the human glucocorticoid receptor stabilized by mutagenesis (F602S/A605V/V702A/E705G/M752T) (domain or fragment)
fraction of GRLBDm bound [1]: 0.22
fraction of GRLBDm bound (with Cep23/DAF-41 added) [1]: 0.28
fraction of GRLBDm bound [2]: 0.49
